# Laboratory results as given in patent US20210388087A1.
# Where a chain is given by its changes, count along the chain named. Names may count otherwise.
# B1: dBBDu183H H93V / dBBDu072L (antibody, name in Kabat numbering, V domains shown)
# VH: QVQLVESGGGLVQPGRSLRLSCAASGFTFSNAWMHWVRQAPGKGLEWVAQIKDKGNAYAAYYAPSVKGRFTISRDDSKNSIYLQMNSLKTEDTAVYYCVYVHYASASTVLPAFGVDAWGQGTTVTVSS
# VL: DIVMTQSPLSLPVTPGEPASISCQASQELVHMNRNTYLHWYQQKPGQAPRLLIYKVSNRFPGVPDRFSGSGSGTDFTLKISRVEAEDVGVYYCAQGTSVPFTFGQGTKLEIK
# B2: dBBDu183H T100bG / dBBDu072L (antibody, name in Kabat numbering, V domains shown)
# VH: B1 VH with V99H, T108G
# VL: B1 VL
# B3: dBBDu183H G100hV / dBBDu072L (antibody, name in Kabat numbering, V domains shown)
# VH: B1 VH with V99H, G114V
# VL: B1 VL
# B4: dBBDu183H A98N / dBBDu072L (antibody, name in Kabat numbering, V domains shown)
# VH: B1 VH with V99H, A104N
# VL: B1 VL
# B5: dBBDu183H S99N / dBBDu072L (antibody, name in Kabat numbering, V domains shown)
# VH: B1 VH with V99H, S105N
# VL: B1 VL
# B6: dBBDu183H S99V / dBBDu072L (antibody, name in Kabat numbering, V domains shown)
# VH: B1 VH with V99H, S105V
# VL: B1 VL
# B7: dBBDu183H H96G / dBBDu072L (antibody, name in Kabat numbering, V domains shown)
# VH: B1 VH with V99H, H102G
# VL: B1 VL
# B8: dBBDu183H Y97V / dBBDu072L (antibody, name in Kabat numbering, V domains shown)
# VH: B1 VH with V99H, Y103V
# VL: B1 VL
# B9: dBBDu183H T100bV / dBBDu072L (antibody, name in Kabat numbering, V domains shown)
# VH: B1 VH with V99H, T108V
# VL: B1 VL
# B10: dBBDu183H S100aV / dBBDu072L (antibody, name in Kabat numbering, V domains shown)
# VH: B1 VH with V99H, S107V
# VL: B1 VL
# B11: dBBDu183H A100V / dBBDu072L (antibody, name in Kabat numbering, V domains shown)
# VH: B1 VH with V99H, A106V
# VL: B1 VL
# B12: dBBDu183H V95N / dBBDu072L (antibody, name in Kabat numbering, V domains shown)
# VH: B1 VH with V99H, V101N
# VL: B1 VL
# B13: dBBDu183H S100aG / dBBDu072L (antibody, name in Kabat numbering, V domains shown)
# VH: B1 VH with V99H, S107G
# VL: B1 VL
# B14: dBBDu183H D101G / dBBDu072L (antibody, name in Kabat numbering, V domains shown)
# VH: B1 VH with V99H, D116G
# VL: B1 VL
# B15: dBBDu183H A98G / dBBDu072L (antibody, name in Kabat numbering, V domains shown)
# VH: B1 VH with V99H, A104G
# VL: B1 VL
# B16: dBBDu183H V100iG / dBBDu072L (antibody, name in Kabat numbering, V domains shown)
# VH: B1 VH with V99H, V115G
# VL: B1 VL
# B17: dBBDu183H Y97N / dBBDu072L (antibody, name in Kabat numbering, V domains shown)
# VH: B1 VH with V99H, Y103N
# VL: B1 VL
# B18: dBBDu183H L100dG / dBBDu072L (antibody, name in Kabat numbering, V domains shown)
# VH: B1 VH with V99H, L110G
# VL: B1 VL
# B19: dBBDu183H Y97G / dBBDu072L (antibody, name in Kabat numbering, V domains shown)
# VH: B1 VH with V99H, Y103G
# VL: B1 VL
# B20: dBBDu183H Y94V / dBBDu072L (antibody, name in Kabat numbering, V domains shown)
# VH: B1 VH with V99H, Y100V
# VL: B1 VL
# B21: dBBDu183H V100cG / dBBDu072L (antibody, name in Kabat numbering, V domains shown)
# VH: B1 VH with V99H, V109G
# VL: B1 VL
# B22: dBBDu183H Y94G / dBBDu072L (antibody, name in Kabat numbering, V domains shown)
# VH: B1 VH with V99H, Y100G
# VL: B1 VL
# B23: dBBDu183H A98V / dBBDu072L (antibody, name in Kabat numbering, V domains shown)
# VH: B1 VH with V99H, A104V
# VL: B1 VL
# B24: dBBDu183H H93G / dBBDu072L (antibody, name in Kabat numbering, V domains shown)
# VH: B1 VH with V99G
# VL: B1 VL
# B25: dBBDu183H A102V / dBBDu072L (antibody, name in Kabat numbering, V domains shown)
# VH: B1 VH with V99H, A117V
# VL: B1 VL
# B26: dBBDu183H S100aN / dBBDu072L (antibody, name in Kabat numbering, V domains shown)
# VH: B1 VH with V99H, S107N
# VL: B1 VL
# B27: dBBDu183H V100cN / dBBDu072L (antibody, name in Kabat numbering, V domains shown)
# VH: B1 VH with V99H, V109N
# VL: B1 VL
# B28: dBBDu183H A100fV / dBBDu072L (antibody, name in Kabat numbering, V domains shown)
# VH: B1 VH with V99H, A112V
# VL: B1 VL
# B29: dBBDu183H H96N / dBBDu072L (antibody, name in Kabat numbering, V domains shown)
# VH: B1 VH with V99H, H102N
# VL: B1 VL
# B30: dBBDu183H D101V / dBBDu072L (antibody, name in Kabat numbering, V domains shown)
# VH: B1 VH with V99H, D116V
# VL: B1 VL
# B31: dBBDu183H V95G / dBBDu072L (antibody, name in Kabat numbering, V domains shown)
# VH: B1 VH with V99H, V101G
# VL: B1 VL
# B32: dBBDu183H P100eV / dBBDu072L (antibody, name in Kabat numbering, V domains shown)
# VH: B1 VH with V99H, P111V
# VL: B1 VL
# B33: dBBDu183H F100gG / dBBDu072L (antibody, name in Kabat numbering, V domains shown)
# VH: B1 VH with V99H, F113G
# VL: B1 VL
# Molecular target: Human CD137 ECD (human)
# Sequence (chain, as listed by the source limits assumed): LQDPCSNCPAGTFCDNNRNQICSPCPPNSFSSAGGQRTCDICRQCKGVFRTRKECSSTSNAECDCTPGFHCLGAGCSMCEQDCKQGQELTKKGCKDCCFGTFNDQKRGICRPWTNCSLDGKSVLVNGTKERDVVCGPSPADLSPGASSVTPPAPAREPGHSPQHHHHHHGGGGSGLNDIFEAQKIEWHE
# Test: SPR, vs parent H183/L072
row,fold change of affinity [fold],Binder
1,0,B1
2,0,B2
3,0,B3
4,0,B4
5,0,B5
6,0,B6
7,0,B7
8,0,B8
9,0,B9
10,0,B10
11,0,B11
12,0,B12
13,0,B13
14,0,B14
15,0,B15
16,0,B16
17,0,B17

row,fold change of affinity [fold],Binder
1,0,B18
2,0,B19
3,0,B20
4,0,B21
5,0,B22
6,0,B23
7,0,B24
8,0,B25
9,0,B26
10,0,B27
11,0,B28
12,0,B29
13,0,B30
14,0,B31
15,0,B32
16,0,B33
